Results taken from the supplement of paper PMC10266784.

B1: library; numbered along this chain (parent)
chain: MAAAAAAAAEQQSSNGPVKKSMREKAVERRSVNKEHNSNFKAGYIPIDEDRLHKTGLRGRKGNLAICVIILLFILAVINLIITLVIWAVIRIGPNGCDSMEFHESGLLRFKQVSDMGVIHPLYKSTVGGRRNENLVITGNNQPIVFQQGTTKLSVENNKTSITSDIGMQFFDPRTQNILFSTDYETHEFHLPSGVKSLNVQKASTERITSNATSDLNIKVDGRAIVRGNEGVFIMGKTIEFHMGGNMELKAENSIILNGSVMVSTTRLPSSSSGDQLGSGDWVRYKLCMCADGTLFKVQVTSQNMGCQISDNPCGNTH

Variants of: B1
Experiment: SGCB cell-surface expression functional score (HA stain, bin4 vs bin1, normalised to synonymous) (log10 ratio); higher = more cell-surface SGCB (functional)
Summary of the method: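 Human beta-sarcoglycan, tagged with HA and fused to YFP, was built into codon-saturation libraries and delivered by lentivirus at MOI <0.1 into HEK293 cells that stably express alpha-, gamma- and delta-sarcoglycan. After 72 hours, YFP-positive cells were sorted and grown for 5–7 days, then stained on ice with Alexa Fluor 647 anti-HA, fixed, sorted into four 5% intensity bins and amplicon-sequenced. Each variant's functional score is the log ratio of its frequency in the highest bin to that in the lowest bin, taken as the median across codons and transductions. Transductions were done in duplicate, and synonymous variants were scaled per section to mean 0, SD 0.5.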

SGCB cell-surface expression functional score (log10), by site and new letter:
L295: T 0.03, G -0.87, K -0.07, D -1.13, A -0.91, P -0.13, N -1.17, H -0.62, C -0.2, M -0.78, W -1.84, F -0.18, V -0.12, S -0.42, Q -0.13, Y -0.02, I 0.11, E -0.95, R -0.52
G306: S -0.32, I -0.62, V -0.76, K -0.17, A -0.83, F -0.43, M -1.83, Y -1.16, H 0.17, P -1.24, W -1.81, Q -0.33, R -0.84, E -0.55, L -0.44, D -0.69, T -0.64, N -0.83, C -0.99
V300: P -0.35, T 0.05, H -0.8, Q -1.07, N -0.77, E -0.69, W -0.26, I -0.28, Y -0.33, R -0.27, A -0.02, M -1.6, F -0.2, G -0.65, L -1.14, S -0.35, C -0.27, K -2.02, D -0.2
M305: L -0.06, S -0.39, W -0.29, C -0.18, Y -1.05, G -0.51, K 0.09, F -0.74, D -0.25, I 0.19, N -1.05, T 0.02, E 0.04, Q -0.28, P -0.21, A -0.71, V -0.22, R -0.25, H -0.9
N304: D -0.34, I -0.42, F -0.09, M -1.75, A -0.43, C -0.06, P -0.2, H 0.26, Y -0.11, W 0.2, K 0.07, G 0.09, R -0.41, E 0.56, Q -0.11, V -1.11, L -0.14, S -0.45, T -0.51
Q308: G -0.76, Y 0.02, E 0.05, W -0.34, L -0.83, I -0.15, C -0.4, D 0.17, N -0.38, A -0.46, K -0.5, V -0.04, M 0.09, R 0.12, T -0.05, P -1.21, S -0.37, H -0.29, F -0.31
S302: A -0.01, T -1.04, L -0.93, I 0.38, F 0.61, M -1.5, H 0.54, D -1.03, G -0.36, E -0.24, V 0.35, N -1.18, Q -1.84, K 0.45, Y -0.06, C -0.53, R 0.1, W -0.56, P -0.74
G293: D 0.2, R -0.02, L -0.36, P -0.23, T 0.13, V -0.73, A -0.12, Q 0.3, H 0.14, M -0.11, E 0.05, F -0.08, S -0.48, I -0.08, W -0.35, Y -0.17, C 0.03, K -0.71, N 0.21
F296: Y 0.25, K -1.28, M -0.13, A -0.24, C -0.18, I 0.21, S -0.26, R -0.46, V -0.33, Q -0.65, H -0.39, L -0.05, P -0.5, G -0.62, E -1.06, W 0.16, T -0.42, D -0.42, N -0.63
D292: P -0.16, C 0.07, L 0.07, F -0.23, N -0.13, K -0.24, H -0.19, S -0.12, I 0.06, A -0.14, T -0.67, V -0.08, G -0.42, R -1.29, M 0.17, Q -1.17, E 0.1, Y -0.33, W -2.02
Q303: D 0.36, P 0.04, K -0.33, N -0.9, C 0.15, V 0.37, W -0.98, S -0.43, F 0.11, A -0.65, T -0.46, L -0.16, M -0.16, E 0.08, I 0.25, H 0.07, Y -0.3, G 0.2, R -0.45
V298: I 0.1, N -0.06, F -1.04, Q -1.06, R -0.21, S -0.15, M 0.21, K 0.19, Y -1.36, E 0.17, A -0.24, G -0.37, L -0.21, T -0.74, H -0.85, P -0.53, W 0.29, C 0.01, D -0.58
C307: I -1.65, K 0.23, T -0.77, F -0.36, M -0.59, V -1.17, L -0.21, G -0.44, N -0.37, R -0.37, P -0.28, H -0.89, Y 0.26, A -0.28, E -0.34, W -0.24, Q 0.09, S -0.41, D 0.04
A291: L -0.71, S -0.06, R 0.01, T 0.17, Q -0.72, W -1.18, V -0.85, P 0.02, M -2.2, N 0.17, Y 0.25
K297: A -0.41, W -1.48, C -0.07, H -0.02, V -0.02, T -0.16, S -0.17, Q -0.3, N 0.46, R 0.25, P 0.02, D 0.03, F -0.47, E 0.15, M 0.17, I -0.54, Y -0.13, G -0.21, L -0.43
T301: A -0.27, L -0.56, C 0.31, S -0.16, F -0.72, P -0.57, H -0.15, V -0.21, R -0.14, E 0.06, D 0.33, G 0.13, I -0.29, Q 0.16, K 0.28, M 0.86, Y 0.14, W 0.96, N -0.45
Q299: P -0.01, H -0.17, F -0.05, W 0.13, E 0.61, R 0, V 0.01, K 0.21, S 0.08, M -0.25, G -0.02, C -1.36, I 0.37, Y -0.66, T 0.05, A 0.08, N 0.04, L -0.23, D 0.16
T294: M 0.19, G 0.5, Y -0.33, E -0.33, V 0.14, R -0.13, Q 0.06, S 0.17, L 0.29, D 0.14, P 0.04, H -0.74, C -0.97, A 0.08, N 0.12, I -0.04, W 0.57, F 0.01, K -0.03
